System: MS2 coat protein
Assay: apparent KD of MS2 coat protein; designed switch direction (-1 OFF switch, 1 ON switch): 1; higher = weaker reporter binding
Method in brief: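 SNAP-549-labelled MS2 coat protein was titrated, doubling from 0.7 or 1.5 nM to 3 µM, over designed RNA switches transcribed on Illumina chips by stalled E. coli RNA polymerase. Runs were done without input, with 200 uM small-molecule ligand, or with an oligonucleotide input. Apparent KD is the per-design median over clusters of curve-fitted normalised fluorescence.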

[1] = Eterna round: R95, input ligand: FMN 200 uM
[2] = Eterna round: R95, input ligand: microRNA oligo, concentration not stated
[3] = Eterna round: R95, input ligand: none
[4] = input ligand: microRNA oligo, concentration not stated

Sequence: GUCAGGUAAGCUUUUUUCUCGUAGUGUAAACAUGAGGAUCACCCAUGUGCUCACCCUGGAUCUUUGGAUCGCAGAAA [Atormace] (puzzle: Sensor for hsa-mir-208a)
- apparent KD of MS2 coat protein [1]: 16.5 nM
- apparent KD of MS2 coat protein [2]: 14.3 nM
- apparent KD of MS2 coat protein [3]: 17.1 nM

Sequence: GUGCGGGUAAGAGGAUAUACAAAUUCUCGUUCUGAGACGAGAACAUGAGGAUCACCCAUGUCUAAGUAGAAGGUUUCAGGCACC [Eternabot solution 28] (Eterna round: R96, puzzle: Same State NG 2)
- apparent KD of MS2 coat protein (input ligand: FMN 200 uM): 21.3 nM
- apparent KD of MS2 coat protein [4]: 18.2 nM
- apparent KD of MS2 coat protein (input ligand: none): 23 nM

Sequence: GUGCUCGUGUAAGGAUAUGCUUCCGUUUCGGCUGCAGAAGGUACUAUAAUACAUGAGGAUCACCCAUGUCUCUUUUGUUUGGUG [salish99_SSNG1_r04_908] (Eterna round: R96, puzzle: Same State NG 1)
- apparent KD of MS2 coat protein (input ligand: FMN 200 uM): 86.1 nM
- apparent KD of MS2 coat protein [4]: 58.6 nM
- apparent KD of MS2 coat protein (input ligand: none): 76.5 nM

Sequence: GUGCUCGUGUGAGGAUAUGCUGCCGGGUCGGCUGCAGAAGGUACUAUUAUACAUGAGGAUCACCCAUGUCGCUUUUCUCCGGUG [salish99_SSNG1_r04_918] (Eterna round: R96, puzzle: Same State NG 1)
- apparent KD of MS2 coat protein [4]: 34.1 nM

Sequence: GUGGAGGGUUGAGGAUAUUGAAUACAUAUGUUUAACAUGAGGAUCACCCAUGUGGGUUGCGGUAUCGAGAAGGUAAGUUGCUGG [salish99_SSNG2_r04_038] (Eterna round: R96, puzzle: Same State NG 2)
- apparent KD of MS2 coat protein (input ligand: FMN 200 uM): 105 nM
- apparent KD of MS2 coat protein [4]: 94.2 nM
- apparent KD of MS2 coat protein (input ligand: none): 89.3 nM

Sequence: GUGGCCCAGGCACAGGAUAUGUUUCUCGUAACAUGAGGAUCACCCAUGUGCCUAUGAGAUUUUUUGCAGAAGGGUGCACGCCACG [JL Atiinbe mod 02] (puzzle: Same State 2)
- apparent KD of MS2 coat protein [2]: 134 nM

Sequence: GUGGCGGGUUGAGGAUAUUGGUUGCCGCUGUUUUACAUGAGGAUCACCCAUGUGGGUUGCGGUUUCGAGAAGGGCGGUUGCUGG [salish99_SSNG2_r04_056] (Eterna round: R96, puzzle: Same State NG 2)
- apparent KD of MS2 coat protein (input ligand: FMN 200 uM): 18.2 nM
- apparent KD of MS2 coat protein [4]: 14.6 nM
- apparent KD of MS2 coat protein (input ligand: none): 24 nM

Sequence: GUGGUCAGACAUGAGGAUCACCCAUGUGGAAUAAAUAACAACUAGGAUAUAUAAUAUAGGAUAUAAUAGAAGGAGUGAUUGGUG (Eterna round: R96, puzzle: Same State NG 3)
- apparent KD of MS2 coat protein [4]: 121 nM

Sequence: GUGGUCAGACAUGAGGAUCACCCAUGUGGAAUAAAUAACAACUAGGAUAUGUAAUAUAGGAUAUAACAGAAGGAGUGAUUGGUG (Eterna round: R96, puzzle: Same State NG 3)
- apparent KD of MS2 coat protein [4]: 111 nM

Sequence: GUGGUCAGACAUGAGGAUCACCCAUGUGGAAUAAAUAAGGAGAAGGAUAUAGAAUAUAGGAUAUACUAGAAGGUCUGGUUGGUG (Eterna round: R96, puzzle: Same State NG 3)
- apparent KD of MS2 coat protein [4]: 63.7 nM

Sequence: GUGGUCAGACAUGAGGAUCACCCAUGUGGAAUAAAUAAGGGAAAGGAUAUAAAAUAUAGGAUAUAUUAGAAGGUUCGGUUGGUG (Eterna round: R96, puzzle: Same State NG 3)
- apparent KD of MS2 coat protein (input ligand: FMN 200 uM): 131 nM
- apparent KD of MS2 coat protein [4]: 83.9 nM
- apparent KD of MS2 coat protein (input ligand: none): 89.6 nM

Sequence: GUGGUCAGACAUGAGGAUCACCCAUGUGGAAUAAAUAAGGGACAGGAUAUUUAAUAUAGGAUAUAGAAGAAGGGUUGGUUGGUG (Eterna round: R96, puzzle: Same State NG 3)
- apparent KD of MS2 coat protein [4]: 88.7 nM

Sequence: GUGGUCAGACAUGAGGAUCACCCAUGUGGAAUAAAUAAGGGUUAGGAUAUGGAAUAUAGGAUAUACCAGAAGGGAUGGUUGGUG (Eterna round: R96, puzzle: Same State NG 3)
- apparent KD of MS2 coat protein (input ligand: FMN 200 uM): 123 nM
- apparent KD of MS2 coat protein [4]: 108 nM
- apparent KD of MS2 coat protein (input ligand: none): 111 nM

Sequence: GUGGUCUGACAUGAGGAUCACCCAUGUGGAAUAAAUACGGGUCAGGAUAUCUUGAGGAUCACCCAAGAGAAGGGACGGAUUGUU (Eterna round: R96, puzzle: Same State NG 3)
- apparent KD of MS2 coat protein (input ligand: FMN 200 uM): 24 nM
- apparent KD of MS2 coat protein [4]: 23.5 nM
- apparent KD of MS2 coat protein (input ligand: none): 35.1 nM

Sequence: GUGGUCUGACAUGAGGAUCACCCAUGUGGAAUAAAUACGGGUUAGGAUAUCUUGAGGAUCACCCAAGAGAAGGGAUGGAUUGUU (Eterna round: R96, puzzle: Same State NG 3)
- apparent KD of MS2 coat protein (input ligand: FMN 200 uM): 83.9 nM
- apparent KD of MS2 coat protein [4]: 54.7 nM
- apparent KD of MS2 coat protein (input ligand: none): 80.8 nM

Sequence: GUGGUGAAUUAAGGAUAUCGAGUCUAGAUGUUAAACAUGAGGAUCACCCAUGUGGGUUGCGGUGUCGAGAAGGUAAUUUACGGG [salish99_SSNG2_r04_508] (Eterna round: R96, puzzle: Same State NG 2)
- apparent KD of MS2 coat protein [4]: 52.6 nM

Sequence: GUGGUGAAUUAAGGAUAUCGAGUCUAGAUGUUAAACAUGAGGAUCACCCAUGUGGGUUGCGGUGUCGAGAAGGUGGUUUACGGG [salish99_SSNG2_r04_510] (Eterna round: R96, puzzle: Same State NG 2)
- apparent KD of MS2 coat protein (input ligand: FMN 200 uM): 63.2 nM
- apparent KD of MS2 coat protein [4]: 84 nM
- apparent KD of MS2 coat protein (input ligand: none): 72.3 nM

Sequence: GUUACAUGAGGAUCACCCAUGUAUGUGUGGGAGUAAGUGUCUUAGGAUAUCUAGUAUUUAAAUUAAGAGAAGGAAGAUUGUUGU [JMF's solution 9] (Eterna round: R96, puzzle: Same State NG 3)
- apparent KD of MS2 coat protein (input ligand: FMN 200 uM): 117 nM
- apparent KD of MS2 coat protein [4]: 84.8 nM
- apparent KD of MS2 coat protein (input ligand: none): 113 nM

Sequence: GUUACAUGAGGAUCACCCAUGUAUGUGUGGGAGUAAGUGUCUUAGGAUAUCUAGUAUUUAAUCUAAGAGAAGGAAGAUUGUUGU [JMF's solution 65] (Eterna round: R96, puzzle: Same State NG 3)
- apparent KD of MS2 coat protein (input ligand: FMN 200 uM): 105 nM
- apparent KD of MS2 coat protein [4]: 74.1 nM
- apparent KD of MS2 coat protein (input ligand: none): 128 nM

Sequence: GUUACAUGAGGAUCACCCAUGUAUGUGUGGGAGUAAGUGUCUUAGGAUAUCUAUGAUUUAAUUUUAGAGAAGGAAGAUUGUUGU [JMF's solution 86] (Eterna round: R96, puzzle: Same State NG 3)
- apparent KD of MS2 coat protein (input ligand: FMN 200 uM): 112 nM
- apparent KD of MS2 coat protein [4]: 70.9 nM
- apparent KD of MS2 coat protein (input ligand: none): 90.8 nM

Sequence: GUUACAUGAGGAUCACCCAUGUAUGUGUGGGAGUAAGUGUCUUAGGAUAUCUAUUAUUUAAUUUAAGAGAAGGAAGAUUGUUGU [JMF's solution 22] (Eterna round: R96, puzzle: Same State NG 3)
- apparent KD of MS2 coat protein [4]: 82.3 nM

Sequence: GUUACAUGAGGAUCACCCAUGUAUGUGUGGGAGUAAGUGUCUUAGGAUAUCUAUUAUUUGAAUUAAGAGAAGGAAGAUUGUUGU [JMF's solution 21] (Eterna round: R96, puzzle: Same State NG 3)
- apparent KD of MS2 coat protein (input ligand: FMN 200 uM): 128 nM
- apparent KD of MS2 coat protein [4]: 69.8 nM
- apparent KD of MS2 coat protein (input ligand: none): 103 nM

Sequence: GUUACAUGAGGAUCACCCAUGUGUGUGUGGGAGUGAGUGGCUUAGGAUAUCUAUGAUUUAAGUUAAGAGAAGGGAGAUUGUUGU [SS-NG3-LRO04] (Eterna round: R96, puzzle: Same State NG 3)
- apparent KD of MS2 coat protein (input ligand: FMN 200 uM): 441 nM
- apparent KD of MS2 coat protein [4]: 330 nM
- apparent KD of MS2 coat protein (input ligand: none): 344 nM

Sequence: GUUAGGAAUCUAGCAAACAUGAGGAUCACCCAUGUUAGUGGGAAGGAUAUGGUACAGAAACUGUACCAGAAGGUCUUAUUAAUU [Omei SS(NG) 3 AV2] (Eterna round: R96, puzzle: Same State NG 3)
- apparent KD of MS2 coat protein (input ligand: FMN 200 uM): 58.3 nM
- apparent KD of MS2 coat protein [4]: 39.1 nM
- apparent KD of MS2 coat protein (input ligand: none): 55.7 nM

Sequence: UAAAUAAUGUAAGGAUAUACAUGAGGAAUUCUCGUAGAAGGUACAUGACAUGAGGAUCACCCAUGUAUCGCUCAGUAGAGCGUA [Mat - Same State NG 1 - JL mod - D27] (Eterna round: R96, puzzle: Same State NG 1)
- apparent KD of MS2 coat protein [4]: 48.3 nM

Sequence: UAAGAACAUGAGGAUCACCCAUGUGGAAAGAACACAGGAUAUCAUGGAAGAACGAAACCAUGAGAAGGGUGACACG [Raatis] (puzzle: Same State 1)
- apparent KD of MS2 coat protein [1]: 6270 nM
- apparent KD of MS2 coat protein [2]: 225 nM
- apparent KD of MS2 coat protein [3]: 24.3 nM

Sequence: UACAAUCUAUCUGAGGAUAUCAUGAAAUAAACAUGAGGAUCACCCAUGUGCAGGAAAACUGCAUAUGAGAAGGCAGAUAGAUUGU [salish99_ss2_r3_059] (puzzle: Same State 2)
- apparent KD of MS2 coat protein [1]: 41.1 nM
- apparent KD of MS2 coat protein [2]: 662 nM
- apparent KD of MS2 coat protein [3]: 1640 nM

Sequence: UACCAACAAAUAAAACAAGCGUGCUCGUCACAUGAGGAUCACCCAUGUUUAAACGCUGUACCUACAUCCUCAGCGCC [Usatqulale] (puzzle: Sensor for hsa-mir-208a)
- apparent KD of MS2 coat protein [1]: 38.9 nM
- apparent KD of MS2 coat protein [2]: 31.3 nM
- apparent KD of MS2 coat protein [3]: 52 nM

Sequence: UACCUACCAGGAGGAUAUACAAACCCGAAAGGAGUAGAAGGCCUGAGUACUAACAUGAGGAUCACCCAUGUAGCGCCAGUUCGC [Eternabot solution 10] (Eterna round: R96, puzzle: Same State NG 1)
- apparent KD of MS2 coat protein (input ligand: FMN 200 uM): 18.2 nM
- apparent KD of MS2 coat protein [4]: 15.1 nM
- apparent KD of MS2 coat protein (input ligand: none): 17.4 nM

Sequence: UACUGAGUCGUAGGAUAUGUAGGAUAUGGCGAGAGCUAAGCUUGGAAGUCACUUCAGCCAGAAGGACAGAAGGACGACUCUCUC [pwkr ssNG2 2FMN + F9.13] (Eterna round: R96, puzzle: Same State NG 2)
- apparent KD of MS2 coat protein (input ligand: FMN 200 uM): 40 nM
- apparent KD of MS2 coat protein [4]: 273 nM
- apparent KD of MS2 coat protein (input ligand: none): 51.1 nM

Sequence: UAGAAACAUGAGGAUCACCCAUGUGUCAAAGACAUAGGAUAUCACAACUGGCGCCAGUCGUGAGAAGGGUGGUAAA [Usonesat] (puzzle: Same State 1)
- apparent KD of MS2 coat protein [1]: 229 nM
- apparent KD of MS2 coat protein [2]: 53.6 nM
- apparent KD of MS2 coat protein [3]: 84.7 nM

Sequence: UAGAGAGGAAGCGAGGAUAUCGUGGGAGGAACAUGAGGAUCACCCAUGUGUGAUGUUGAGAGGAACGAGAAGGCGCAGGAAAGUA [JR_SS2_Sub078] (puzzle: Same State 2)
- apparent KD of MS2 coat protein [1]: 83.3 nM
- apparent KD of MS2 coat protein [2]: 83.1 nM
- apparent KD of MS2 coat protein [3]: 143 nM

Sequence: UAGAGAGGAAGCGAGGAUAUCGUGUGAGGAACAUGAGGAUCACCCAUGUGUGAUGUUGAGAGAGACGAGAAGGCGCAGGAAAUUA [JR_SS2_Sub082] (puzzle: Same State 2)
- apparent KD of MS2 coat protein [2]: 116 nM

— the supplement of paper PMC9170038
